From patent publication US20220396635A1 (UNIVERSIT T STUTTGART, published 2022) come the findings set out here.

Usually EC50 stands for the concentration at which the effect is half-maximal. High values mean a need for much substance, low ones an effect from little substance.

One test deals with T1, FAP (UniProt Q12884 1-760, limits assumed).
T1 construct: whole, on cells; also called FAP on HT1080-FAP cells
In words: flow cytometry, serial dilution on HT1080-FAP cells (FAP-expressing), PE anti-human Fc detection. The procedure: Binding of trivalent, bispecific fusion proteins to FAP-expressing (HT1080-FAP) cell lines was analyzed by flow cytometry. 2×10⁵ cells/well were incubated with a serial dilution of trivalent, bispecific antibodies for 1 h at 4° C. followed by detection using a PE-conjugated anti-human Fc antibody (Jackson ImmunoResearch Laboratories Inc).

Test [1] has as its target T2, CEA (UniProt P06731 35-685).
T2 sequence (looked up): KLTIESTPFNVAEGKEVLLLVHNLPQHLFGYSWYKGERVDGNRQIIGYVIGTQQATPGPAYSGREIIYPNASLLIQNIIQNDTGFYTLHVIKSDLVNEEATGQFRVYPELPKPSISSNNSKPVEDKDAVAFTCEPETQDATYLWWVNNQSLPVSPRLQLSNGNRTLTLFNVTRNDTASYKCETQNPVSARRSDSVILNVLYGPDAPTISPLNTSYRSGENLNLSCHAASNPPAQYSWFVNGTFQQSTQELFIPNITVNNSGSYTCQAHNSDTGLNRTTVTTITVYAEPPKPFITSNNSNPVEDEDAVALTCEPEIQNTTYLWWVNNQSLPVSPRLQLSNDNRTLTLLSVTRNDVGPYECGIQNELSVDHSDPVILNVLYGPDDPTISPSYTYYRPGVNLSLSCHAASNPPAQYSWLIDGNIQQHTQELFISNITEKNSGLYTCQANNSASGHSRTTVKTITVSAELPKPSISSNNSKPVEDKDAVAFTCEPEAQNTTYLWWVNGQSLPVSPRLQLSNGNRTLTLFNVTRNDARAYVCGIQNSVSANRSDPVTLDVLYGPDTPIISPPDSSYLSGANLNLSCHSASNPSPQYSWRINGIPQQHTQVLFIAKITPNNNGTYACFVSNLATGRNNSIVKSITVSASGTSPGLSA
In words: cell-based or functional assay.

Test [2] concerns the target T2, CEA. In words: cell-based or functional assay. The source holds these as a separate data set.
A further test addresses T3, CD3 (UniProt P07766 23-207).
T3 construct: whole, on cells; on cells it stands in the TCR/CD3 complex; also called CD3 on Jurkat cells
Description: flow cytometry, serial dilution on Jurkat cells (CD3-expressing), PE anti-human Fc detection. The procedure: (§1) Binding of trivalent, bispecific fusion proteins to CEA-expressing (LIM1215) and CD3-expressing (Jurkat) cell lines was analyzed by flow cytometry. 2×10⁵ cells/well were incubated with a serial dilution of trivalent, bispecific antibodies for 1 h at 4° C. followed by detection using a PE-conjugated anti-human Fc antibody (Jackson ImmunoResearch Laboratories Inc). […] Regarding the CEA-expressing cell line LIM1215, the trivalent, bispecific antibodies bound with EC₅₀ values in the nanomolar range (FIG. 16A) (Table 9).

The target of test [3] is T2, CEA. In words: flow cytometry, serial dilution on LIM1215 cells (CEA-expressing), PE anti-human Fc detection. As to the method: as §1

B1: scDb/scFv-Fc (1-1)+2, trivalent bispecific anti-FAPxanti-CD3 (bispecific antibody)
chain 1: QVQLVQSGAEVKKPGASVKVSCKASGYTFTENIIHWVRQAPGQGLEWMGWFHPGSGSIKYNEKFKDRVTMTADTSTSTVYMELSSLRSEDTAVYYCARHGGTGRGAMDYWGQGTLVTVSSGGGGSDIQMTQSPSSLSASVGDRVTITCRASKSVSTSAYSYMHWYQQKPGKAPKLLIYLASNLESGVPSRFSGSGSGTDFTLTISSLQPEDFATYYCQHSRELPYTFGQGTKLEIKRGGGGSGGGGSQVQLVQSGAEVKKPGASVKVSCKASGYTFTENIIHWVRQAPGQGLEWMGWFHPGSGSIKYNEKFKDRVTMTADTSTSTVYMELSSLRSEDTAVYYCARHGGTGRGAMDYWGQGTLVTVGGGGSDIQMTQSPSSLSASVGDRVTITCRASKSVSTSAYSYMHWYQQKPGKAPKLLIYLASNLESGVPSRFSGSGSGTDFTLTISSLQPEDFATYYCQHSRELPYTFGQGTKLEIKRAAADKTHTCPPCPAPPVAGPSVFLFPPKPKDTLMISRTPEVTCVVVDVSHEDPEVKFNWYVDGVEVHNAKTKPREEQYNSTYRVVSVLTVLHQDWLNGKEYKCKVSNKGLPSSIEKTISKAKGQPREPQVCTLPPSRDELTKNQVSLSCAVKGFYPSDIAVEWESNGQPENNYKTTPPVLDSDGSFFLVSKLTVDKSRWQQGNVFSCSVMHEALHNHYTQKSLSLSPGK
chain 2: DIQMTQSPSSLSASVGDRVTITCRASQDIRNYLNWYQQKPGKAPKLLIYYTSRLHSGVPSRFSGSGSGTDFTFTISSLQPEDIATYYCQQGNTLPWTFGQGTKLEIKRGGGGSGGGGSGGGGSQVQLVQSGAEVKKPGSSVKVSCKASGGTFSGYTMNWVRQAPGQGLEWMGLINPYKGVSTYNGKFKDRVTITADKSTSTAYMELSSLRSEDTAVYYCARSGYYGDSDWYFDVWGQGTLVTVSSAAADKTHTCPPCPAPPVAGPSVFLFPPKPKDTLMISRTPEVTCVVVDVSHEDPEVKFNWYVDGVEVHNAKTKPREEQYNSTYRVVSVLTVLHQDWLNGKEYKCKVSNKGLPSSIEKTISKAKGQPREPQVYTLPPCRDELTKNQVSLWCLVKGFYPSDIAVEWESNGQPENNYKTTPPVLDSDGSFFLYSKLTVDKSRWQQGNVFSCSVMHEALHNHYTQKSLSLSPGK
notes: also called scDbFAPxFAP-Fc(hole)Δab + scFvhuU3-Fc(knob)Δab
Turning to B1, in the test with FAP, the EC50 was determined as 1 nM.

B2: scDb/scFv-Fc (1-2)+1, trivalent bispecific anti-CEAxanti-CD3 (bispecific antibody)
chain 1: QVKLQQSGAELVRSGTSVKLSCTASGFNIKDSYMHWLRQGPEQGLEWIGWIDPENGDTEYAPKFQGKATFTTDTSSNTAYLQLSSLTSEDTAVYYCNEGTPTGPYYFDYWGQGTTVTVSSGGGGSDIQMTQSPSSLSASVGDRVTITCRASQDIRNYLNWYQQKPGKAPKLLIYYTSRLHSGVPSRFSGSGSGTDFTFTISSLQPEDIATYYCQQGNTLPWTFGQGTKLEIKRGGGGSGGGGSGGGGSQVQLVQSGAEVKKPGSSVKVSCKASGGTFSGYTMNWVRQAPGQGLEWMGLINPYKGVSTYNGKFKDRVTITADKSTSTAYMELSSLRSEDTAVYYCARSGYYGDSDWYFDVWGQGTLVTVSSGGGGSDIELTQSPAIMSASPGEKVTITCSASSSVSYMHWFQQKPGTSPKLWIYSTSNLASGVPARFSGSGSGTSYSLTISRMEAEDAATYYCQQRSSYPLTFGAGTKLELKRAAADKTHTCPPCPAPPVAGPSVFLFPPKPKDTLMISRTPEVTCVVVDVSHEDPEVKFNWYVDGVEVHNAKTKPREEQYNSTYRVVSVLTVLHQDWLNGKEYKCKVSNKGLPSSIEKTISKAKGQPREPQVCTLPPSRDELTKNQVSLSCAVKGFYPSDIAVEWESNGQPENNYKTTPPVLDSDGSFFLVSKLTVDKSRWQQGNVFSCSVMHEALHNHYTQKSLSLSPGK
chain 2: QVKLQQSGAELVRSGTSVKLSCTASGFNIKDSYMHWLRQGPEQGLEWIGWIDPENGDTEYAPKFQGKATFTTDTSSNTAYLQLSSLTSEDTAVYYCNEGTPTGPYYFDYWGQGTTVTVSSGGGGSGGGGSGGGGSDIELTQSPAIMSASPGEKVTITCSASSSVSYMHWFQQKPGTSPKLWIYSTSNLASGVPARFSGSGSGTSYSLTISRMEAEDAATYYCQQRSSYPLTFGAGTKLELKRAAADKTHTCPPCPAPPVAGPSVFLFPPKPKDTLMISRTPEVTCVVVDVSHEDPEVKFNWYVDGVEVHNAKTKPREEQYNSTYRVVSVLTVLHQDWLNGKEYKCKVSNKGLPSSIEKTISKAKGQPREPQVYTLPPCRDELTKNQVSLWCLVKGFYPSDIAVEWESNGQPENNYKTTPPVLDSDGSFFLYSKLTVDKSRWQQGNVFSCSVMHEALHNHYTQKSLSLSPGK
notes: also called scDbCEAxhuU3-Fc(hole)Δab + scFvCEA-Fc(knob)Δab
B2: the “EC50 of PBMC cytotoxicity on LIM1215 cells, E:T 10:1” value (from here on “EC50 of PBMC cytotoxicity”) in the test with CEA [1] came out at 0.5 nM. The “EC50 of IL-2 release, PBMCs co-cultured with LIM1215 cells” value (“EC50 of IL-2 release, PBMCs co-cultured” below) with CEA [2] is 1.4 nM. Also, the EC50 with CD3 came to 7.7 nM; with CEA [3], 1.6 nM.

B3: scDb/scFv-Fc (2-1)+1, trivalent bispecific anti-CEAxanti-CD3 (bispecific antibody)
chain 1: QVQLVQSGAEVKKPGSSVKVSCKASGGTFSGYTMNWVRQAPGQGLEWMGLINPYKGVSTYNGKFKDRVTITADKSTSTAYMELSSLRSEDTAVYYCARSGYYGDSDWYFDVWGQGTLVTVSSGGGGSDIELTQSPAIMSASPGEKVTITCSASSSVSYMHWFQQKPGTSPKLWIYSTSNLASGVPARFSGSGSGTSYSLTISRMEAEDAATYYCQQRSSYPLTFGAGTKLELKRGGGGSGGGGSGGGGSQVKLQQSGAELVRSGTSVKLSCTASGFNIKDSYMHWLRQGPEQGLEWIGWIDPENGDTEYAPKFQGKATFTTDTSSNTAYLQLSSLTSEDTAVYYCNEGTPTGPYYFDYWGQGTTVTVSSGGGGSDIQMTQSPSSLSASVGDRVTITCRASQDIRNYLNWYQQKPGKAPKLLIYYTSRLHSGVPSRFSGSGSGTDFTFTISSLQPEDIATYYCQQGNTLPWTFGQGTKLEIKRAAADKTHTCPPCPAPPVAGPSVFLFPPKPKDTLMISRTPEVTCVVVDVSHEDPEVKFNWYVDGVEVHNAKTKPREEQYNSTYRVVSVLTVLHQDWLNGKEYKCKVSNKGLPSSIEKTISKAKGQPREPQVCTLPPSRDELTKNQVSLSCAVKGFYPSDIAVEWESNGQPENNYKTTPPVLDSDGSFFLVSKLTVDKSRWQQGNVFSCSVMHEALHNHYTQKSLSLSPGK
chain 2: B2 chain 2
notes: also called scDbhuU3xCEA-Fc(hole)Δab + scFvCEA-Fc(knob)Δab
Consider B3, for which the “EC50 of PBMC cytotoxicity” value with CEA [1] stood at 0.3 nM. In the test with CEA [2], the “EC50 of IL-2 release, PBMCs co-cultured” value stood at 1.4 nM. Moreover, the EC50 was 7.9 nM with CD3 and 1.7 nM with CEA [3].

B4: scDb/Fab-Fc (1-2)+1, trivalent bispecific anti-CEAxanti-CD3 (bispecific antibody, human IgG1, kappa)
chain: B2 chain 1
heavy: QVKLQQSGAELVRSGTSVKLSCTASGFNIKDSYMHWLRQGPEQGLEWIGWIDPENGDTEYAPKFQGKATFTTDTSSNTAYLQLSSLTSEDTAVYYCNEGTPTGPYYFDYWGQGTTVTVSSASTKGPSVFPLAPSSKSTSGGTAALGCLVKDYFPEPVTVSWNSGALTSGVHTFPAVLQSSGLYSLSSVVTVPSSSLGTQTYICNVNHKPSNTKVDKKVEPKSCDKTHTCPPCPAPPVAGPSVFLFPPKPKDTLMISRTPEVTCVVVDVSHEDPEVKFNWYVDGVEVHNAKTKPREEQYNSTYRVVSVLTVLHQDWLNGKEYKCKVSNKGLPSSIEKTISKAKGQPREPQVYTLPPCRDELTKNQVSLWCLVKGFYPSDIAVEWESNGQPENNYKTTPPVLDSDGSFFLYSKLTVDKSRWQQGNVFSCSVMHEALHNHYTQKSLSLSPGK
light: DIELTQSPAIMSASPGEKVTITCSASSSVSYMHWFQQKPGTSPKLWIYSTSNLASGVPARFSGSGSGTSYSLTISRMEAEDAATYYCQQRSSYPLTFGAGTKLELKRRTVAAPSVFIFPPSDEQLKSGTASVVCLLNNFYPREAKVQWKVDNALQSGNSQESVTEQDSKDSTYSLSSTLTLSKADYEKHKVYACEVTHQGLSSPVTKSFNRGEC
notes: also called scDbCEAxhuU3-Fc(hole)Δab + VHCEA-CH1-Fc(knob)Δab + VLCEA-CLκ
Consider B4, for which the “EC50 of PBMC cytotoxicity” value with CEA [1] was 0.4 nM. Also, the “EC50 of IL-2 release, PBMCs co-cultured” value with CEA [2] was found to be 0.5 nM. Also, the EC50 was found to be 5.7 nM with CD3 and 2.5 nM with CEA [3].
